Laboratory results taken from US20110160280.
Substitutions are numbered along the chain they refer to.

Assays:
[1] = biological target: active recombinant EGFR (Millipore) (UniProt P00533)
[2] = test system: active recombinant MET (Millipore)
[3] = biological target: GST-tagged partial EGFR fragment #3 (codons 1046-1186) (UniProt P00533)
[4] = test system: T1, WDHD1 immunoprecipitant, wild type (c-Myc-tagged WDHD1, pcDNA3.1/myc-His-WDHD1)
T1 sequence: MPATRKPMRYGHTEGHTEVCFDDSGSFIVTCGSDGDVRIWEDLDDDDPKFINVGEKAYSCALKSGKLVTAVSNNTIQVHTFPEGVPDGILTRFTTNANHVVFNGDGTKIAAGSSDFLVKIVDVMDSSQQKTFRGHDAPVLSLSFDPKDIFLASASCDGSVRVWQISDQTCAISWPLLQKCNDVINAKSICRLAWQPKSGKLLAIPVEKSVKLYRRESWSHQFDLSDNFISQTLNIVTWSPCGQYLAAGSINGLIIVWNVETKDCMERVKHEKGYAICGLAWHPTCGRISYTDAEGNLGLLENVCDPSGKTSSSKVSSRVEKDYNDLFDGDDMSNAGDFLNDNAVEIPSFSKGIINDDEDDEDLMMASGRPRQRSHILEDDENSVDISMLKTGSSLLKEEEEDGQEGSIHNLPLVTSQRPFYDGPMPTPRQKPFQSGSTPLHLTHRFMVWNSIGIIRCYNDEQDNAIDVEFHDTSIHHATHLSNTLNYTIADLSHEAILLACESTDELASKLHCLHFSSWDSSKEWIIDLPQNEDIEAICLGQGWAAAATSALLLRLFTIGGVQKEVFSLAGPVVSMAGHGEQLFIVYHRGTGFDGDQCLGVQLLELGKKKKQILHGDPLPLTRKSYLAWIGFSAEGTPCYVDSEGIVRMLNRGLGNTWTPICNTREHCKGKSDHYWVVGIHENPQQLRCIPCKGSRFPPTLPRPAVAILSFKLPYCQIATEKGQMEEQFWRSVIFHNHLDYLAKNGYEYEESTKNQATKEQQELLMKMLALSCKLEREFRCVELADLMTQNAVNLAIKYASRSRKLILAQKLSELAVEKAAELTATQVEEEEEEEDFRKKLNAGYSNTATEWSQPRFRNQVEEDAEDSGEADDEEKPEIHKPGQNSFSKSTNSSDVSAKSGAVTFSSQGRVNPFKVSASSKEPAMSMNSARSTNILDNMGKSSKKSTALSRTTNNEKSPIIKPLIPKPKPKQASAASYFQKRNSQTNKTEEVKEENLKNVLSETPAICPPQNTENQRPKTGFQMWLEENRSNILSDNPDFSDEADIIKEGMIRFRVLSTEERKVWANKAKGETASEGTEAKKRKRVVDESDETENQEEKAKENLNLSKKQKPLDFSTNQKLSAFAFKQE

[5] = test system: T2, WDHD1 S374A immunoprecipitant
T2 sequence: T1 sequence with S374A

active recombinant EPHA7 (Carnabioscience), sequence (chain, as listed by the source): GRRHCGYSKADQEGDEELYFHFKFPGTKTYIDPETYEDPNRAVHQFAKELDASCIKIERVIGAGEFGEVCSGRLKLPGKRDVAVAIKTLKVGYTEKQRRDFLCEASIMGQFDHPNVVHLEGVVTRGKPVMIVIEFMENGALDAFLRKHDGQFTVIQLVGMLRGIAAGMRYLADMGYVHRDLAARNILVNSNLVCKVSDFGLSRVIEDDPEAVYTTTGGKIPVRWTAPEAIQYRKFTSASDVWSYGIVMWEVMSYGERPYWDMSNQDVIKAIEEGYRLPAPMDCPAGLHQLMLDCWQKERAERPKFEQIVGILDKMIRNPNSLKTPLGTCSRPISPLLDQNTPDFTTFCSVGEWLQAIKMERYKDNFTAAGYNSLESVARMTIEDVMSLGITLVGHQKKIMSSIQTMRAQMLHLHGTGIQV
active recombinant MET (Millipore), sequence (chain, as listed by the source): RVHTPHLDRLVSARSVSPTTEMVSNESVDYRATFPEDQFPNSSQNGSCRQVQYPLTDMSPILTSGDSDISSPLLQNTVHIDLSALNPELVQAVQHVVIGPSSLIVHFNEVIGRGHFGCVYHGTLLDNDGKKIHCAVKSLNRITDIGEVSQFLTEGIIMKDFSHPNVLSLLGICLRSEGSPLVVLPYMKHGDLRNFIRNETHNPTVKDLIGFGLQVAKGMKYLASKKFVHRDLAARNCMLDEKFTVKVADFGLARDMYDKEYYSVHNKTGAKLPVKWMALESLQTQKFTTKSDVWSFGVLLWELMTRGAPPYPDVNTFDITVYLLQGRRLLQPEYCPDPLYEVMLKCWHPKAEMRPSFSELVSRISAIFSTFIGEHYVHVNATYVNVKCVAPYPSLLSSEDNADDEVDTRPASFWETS

Substance	in vitro kinase assay (phosphorylation of EGFR) [1]	in vitro kinase assay (level of EPHA7 phosphorylation) [2]	in vitro kinase assay (phosphorylation of MET) [2]	in vitro kinase assay (phosphorylation of partial EGFR fragment) [3]	in vitro kinase assay, immunoblot with PAS antibody [4]	in vitro kinase assay, immunoblot with PAS antibody [5]
active recombinant EPHA7 (Carnabioscience)	EPHA7 could directly phosphorylate EGFR under the existence of EGFR kinase inhibitor that had diminished autophosphorylation of EGFR	the level of EPHA7 phosphorylation was markedly elevated when MET was co-incubated in the presence MET kinase inhibitor	EPHA7 could directly phosphorylate MET	phosphorylated tyrosine residues on cytoplasmic EGFR could be present in COOH-terminal portion (codons 1046-1186)	–	–
recombinant human AKT1 (rhAKT1; Invitrogen)	–	–	–	–	proved the direct phosphorylation of WDHD1 by AKT	clearly indicated the reduced levels of WDHD1 phosphorylation in cells transfected with S374A mutant
